Columns and labels:
hMSLN-His-Avi [1] = biological target: T1, hMSLN-His-Avi (human, UniProt Q13421 296-598, single biotin on the Avi tag in the biotinylated form); experiment: ratio of SPR KDs
T1 construct: Monomeric; also called human MSLN-His-Avi; hMSLN-Avi-His

[2] = biological target: human CD137 on primary human CD8+ T cells (human, UniProt Q07011 24-255); experiment: cell-based or functional assay
[3] = biological target: T2, endogenous cell surface human MSLN (human, UniProt Q13421 296-598); experiment: flow cytometry, NCI-H226 cells
T2 construct: whole, on cells; The cell line is named under assay; also called cell-surface MSLN on NCI-H226, OVCAR-3 and AsPC-1 cells
T2 sequence (Q13421 other isoform, or with tags, fused parts or gaps limits assumed): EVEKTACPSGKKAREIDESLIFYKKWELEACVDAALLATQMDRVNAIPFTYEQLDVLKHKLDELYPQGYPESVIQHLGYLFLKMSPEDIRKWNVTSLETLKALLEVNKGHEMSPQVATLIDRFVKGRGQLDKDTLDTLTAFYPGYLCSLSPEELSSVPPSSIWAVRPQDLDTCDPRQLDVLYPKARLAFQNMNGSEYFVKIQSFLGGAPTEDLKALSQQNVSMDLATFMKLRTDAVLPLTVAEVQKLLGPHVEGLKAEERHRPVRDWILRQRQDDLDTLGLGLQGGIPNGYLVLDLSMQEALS

[4] = biological target: T2, endogenous cell surface human MSLN; experiment: flow cytometry, NCI-H226 cells + 20 nM soluble MSLN
hMSLN-His-Avi [5] = biological target: T1, hMSLN-His-Avi; experiment: SPR, hMSLN-His-Avi immobilised ~100 RU, mAb2 injected
cMSLN-His-Avi [6] = biological target: T3, cMSLN-His-Avi (cynomolgus, single biotin on the Avi tag in the biotinylated form); experiment: SPR, mAb2 captured on Protein G, cMSLN-His-Avi in solution
T3 construct: Monomeric; also called cyno MSLN-His-Avi; cMSLN-Avi-His
T3 chain: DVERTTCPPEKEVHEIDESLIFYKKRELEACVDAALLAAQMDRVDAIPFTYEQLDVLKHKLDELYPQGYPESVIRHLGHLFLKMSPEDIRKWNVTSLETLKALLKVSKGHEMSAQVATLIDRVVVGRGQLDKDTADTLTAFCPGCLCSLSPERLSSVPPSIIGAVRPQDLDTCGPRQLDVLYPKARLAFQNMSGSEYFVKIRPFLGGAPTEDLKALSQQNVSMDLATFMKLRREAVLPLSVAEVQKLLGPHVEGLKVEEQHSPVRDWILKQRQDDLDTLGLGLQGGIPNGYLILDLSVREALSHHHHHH
Description: (§1) The association time was 5 min and the dissociation time was 5 min. Running buffer was HBS-EP (GE Healthcare BR100188). Flow cells were regenerated by injecting Glycine-HCl pH2.1 at a flow rate of 30 μl/min for 15 seconds. The data was analysed as described in Example 7.1.

hMSLN-His-Avi [7] = biological target: T1, hMSLN-His-Avi; experiment: SPR, mAb2 captured on Protein G, hMSLN-His-Avi in solution
Description: as §1

hCD137-mFc-Avi = biological target: T4, hCD137-mFc-Avi (human; mouse, UniProt Q07011 24-186, one biotin on each Avi tag in the biotinylated form); experiment: SPR, mAb2 captured by anti-human Fab, hCD137-mFc-Avi in solution
T4 construct: also called human dimeric CD137; human CD137-mFc-Avi
T4 sequence (Q07011 24-186): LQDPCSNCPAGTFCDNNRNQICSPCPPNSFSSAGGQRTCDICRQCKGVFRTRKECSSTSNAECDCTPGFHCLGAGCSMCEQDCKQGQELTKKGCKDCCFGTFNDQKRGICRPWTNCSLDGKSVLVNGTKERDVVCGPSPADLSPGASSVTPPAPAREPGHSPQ
Description: A Biacore CM5 chip was coated with anti-human Fab using a Human Fab Capture Kit (GE Healthcare 28958325) according to manufacturer's conditions, to a surface density of approximately 9000 RU. […] The association time was 5 min and the dissociation time was 5 min. Running buffer was HBS-EP. Flow cells were regenerated by injecting two repeat injections of 10 mM glycine-HCl at pH 2.1 at a flow rate of 30 μl/min for 30 seconds. Data analysis was performed as described in earlier examples (see e.g. Example 7.1).

mMSLN-His-Avi [8] = biological target: T5, mMSLN-His-Avi (mouse, UniProt Q61468 298-600, single biotin on the Avi tag in the biotinylated form); experiment: ratio of SPR KDs
T5 construct: also called mouse MSLN-His-Avi
T5 sequence: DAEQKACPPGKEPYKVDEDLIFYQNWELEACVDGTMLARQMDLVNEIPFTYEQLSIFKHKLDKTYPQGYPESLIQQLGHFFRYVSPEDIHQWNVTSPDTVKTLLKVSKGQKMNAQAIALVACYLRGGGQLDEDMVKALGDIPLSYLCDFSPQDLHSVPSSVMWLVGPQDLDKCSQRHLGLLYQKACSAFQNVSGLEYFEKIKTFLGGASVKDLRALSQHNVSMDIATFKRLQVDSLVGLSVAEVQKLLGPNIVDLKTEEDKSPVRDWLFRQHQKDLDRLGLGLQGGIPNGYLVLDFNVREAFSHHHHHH
Description: (§2) To determine the affinity for soluble MSLN the mAb^2 was captured via an anti-human Fc. Briefly, 25 µg/ml anti-human IgG (Fc) antibody (GE Healthcare, Human Antibody Capture Kit, BR100839) was immobilised on a Biacore sensor chip CM5 (GE Healthcare, BR100530) achieving a final response of approximately 750 RU. The mAb^2 molecule, diluted in HBS-EP buffer (GE Healthcare, BR100188) at 50 nM, was injected individually at 30 µl/min to achieve a response of approximately 100 RU. The recombinant mMSLN-His-Avi antigen, diluted in HBS-EP buffer, was injected at a concentration range of 243 nM to 0.11 nM with 3-fold dilutions for 5 minutes at 70 µl/min and then allowed to dissociate in buffer for 5 minutes. Regeneration was achieved by injecting 3 M magnesium chloride (GE Healthcare, Human Antibody Capture Kit, BR100839) for 30 seconds at a rate of 30 µl/min.

mMSLN-His-Avi [9] = biological target: T5, mMSLN-His-Avi; experiment: SPR, mMSLN-His-Avi immobilised at 50 RU
mMSLN-His-Avi [10] = biological target: T5, mMSLN-His-Avi; experiment: SPR, mAb2 captured by anti-human Fc, mMSLN-His-Avi in solution
Description: as §2

cMSLN-His-Avi [11] = biological target: T3, cMSLN-His-Avi; experiment: SPR, mAb2 captured on Protein G, MSLN in solution
Description: as §1

T1 sequence (Q13421 other isoform, or with tags, fused parts or gaps): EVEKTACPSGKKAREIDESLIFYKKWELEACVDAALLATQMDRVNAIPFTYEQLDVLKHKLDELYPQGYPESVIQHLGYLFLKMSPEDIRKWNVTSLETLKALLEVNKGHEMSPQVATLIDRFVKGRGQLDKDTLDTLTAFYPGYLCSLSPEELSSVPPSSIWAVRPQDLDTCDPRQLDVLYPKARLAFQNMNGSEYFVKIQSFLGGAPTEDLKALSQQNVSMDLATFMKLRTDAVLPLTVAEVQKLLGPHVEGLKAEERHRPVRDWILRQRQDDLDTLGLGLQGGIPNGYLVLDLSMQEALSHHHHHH
Chain of human CD137 on primary human CD8+ T cells (Q07011 24-255): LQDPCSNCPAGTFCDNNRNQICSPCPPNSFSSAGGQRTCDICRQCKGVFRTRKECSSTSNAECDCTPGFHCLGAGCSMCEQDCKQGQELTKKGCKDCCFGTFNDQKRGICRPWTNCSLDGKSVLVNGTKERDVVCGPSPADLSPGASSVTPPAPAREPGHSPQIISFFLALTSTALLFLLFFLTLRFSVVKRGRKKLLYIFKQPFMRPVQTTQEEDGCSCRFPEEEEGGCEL

Row | Binder | KD ratio in solution/immobilised human MSLN (hMSLN-His-Avi [1]) | Emax (IL-2 pg/ml), NCI-H226 co-culture, Donor A [2] | Emax (IL-2 pg/ml), NCI-H226 co-culture, Donor B [2] | IL-2 release EC50, NCI-H226 co-culture, Donor A [2] | IL-2 release EC50, NCI-H226 co-culture, Donor B [2] | EC50 [3] | Emax (MFI) [3] | EC50 [4] | Emax (MFI) [4] | Kd (hMSLN-His-Avi [5]) | Kd (cMSLN-His-Avi [6]) | Kd (hMSLN-His-Avi [7]) | Kd (hCD137-mFc-Avi) | ratio of KD in solution/immobilised (mMSLN-His-Avi [8]) | Kd (mMSLN-His-Avi [9]) | Kd (mMSLN-His-Avi [10]) | fold less cross reactive compared to human MSLN (cMSLN-His-Avi [11])
1 | FS22-172-003-AA/FS28-024-052 (bispecific antibody, human IgG1, kappa, L234A L235A, V domains shown, IgG1 mAb^2 with LALA) VH: EVQLLESGGGLVQPGGSLRLSCAASGFTLSYSSMSWVRQAPGKGLEWVSFITPSTGYTHYADSVKGRFTISRDNSKNTLYLQMNSLRAEDTAVYYCARRALLFDYWGQGTLVTVSS VL: EIVLTQSPGTLSLSPGERATLSCRASQSVSSSYLAWYQQKPGQAPRLLIYGASSRATGIPDRFSGSGSGTDFTLTISRLEPEDFAVYYCQQASSYPLTFGQGTKVEIKR | 85 | 1070 pg/mL | 1690 pg/mL | 0.04 nM | 0.05 nM | 0.884 nM | 752000 MFI | 3.64 nM | 799000 MFI | 0.39 nM | 239 nM | 33.1 nM | 1.51 nM |  |  |  | 
2 | FS22m-063-AA/FS28m-228 (bispecific antibody, human IgG1, kappa, L234A L235A, V domains shown, IgG1 mAb^2 with LALA; also called anti-mouse CD137/MSLN mAb^2) VH: EVQLLESGGGLVQPGGSLRLSCAASGFTFSTYFMVWVRQAPGKGLEWVSMISPKSSNTYYADSVKGRFTISRDNSKNTLYLQMNSLRAEDTAVYYCARWFTPARFDYWGQGTLVTVSS VL: EIVLTQSPGTLSLSPGERATLSCRASQSVSSSYLAWYQQKPGQAPRLLIYGASSRATGIPDRFSGSGSGTDFTLTISRLEPEDFAVYYCQQPFPFSFTFGQGTKVEIKR |  |  |  |  |  |  |  |  |  |  |  |  |  | 31.9 | 7.9 nM | 252 nM | 
3 | FS22m-063-AA/FS28m-228-010 (bispecific antibody, human IgG1, kappa, L234A L235A, V domains shown, IgG1 mAb^2 with LALA) VH: EVQLLESGGGLVQPGGSLRLSCAASGFTFSTYFMVWVRQAPGKGLEWVSMISPKSSNTYYADSVKGRFTISRDNSKNTLYLQMNSLRAEDTAVYYCARYHISPRFDYWGQGTLVTVSS VL: EIVLTQSPGTLSLSPGERATLSCRASQSVSSSYLAWYQQKPGQAPRLLIYGASSRATGIPDRFSGSGSGTDFTLTISRLEPEDFAVYYCQQPFPFSFTFGQGTKVEIKR |  |  |  |  |  |  |  |  |  |  |  |  |  | 23.2 | 2.6 nM | 60.2 nM | 
4 | FS22-172-003-AA/FS28-024-060 (bispecific antibody, human IgG1, kappa, L234A L235A, V domains shown, IgG1 mAb^2 with LALA) VH: EVQLLESGGGLVQPGGSLRLSCAASGFTLSYSSMSWVRQAPGKGLEWVSFITPSTGYTHYADSVKGRFTISRDNSKNTLYLQMNSLRAEDTAVYYCARRALWFDYWGQGTLVTVSS VL: EIVLTQSPGTLSLSPGERATLSCRASQSVSSSYLAWYQQKPGQAPRLLIYGASSRATGIPDRFSGSGSGTDFTLTISRLEPEDFAVYYCQQASSYPLTFGQGTKVEIKR | 33 | 1400 pg/mL | 1940 pg/mL | 0.04 nM | 0.06 nM | 0.695 nM | 840000 MFI | 4.69 nM | 930000 MFI | 0.13 nM | 230 nM | 4.27 nM |  |  |  |  | 54 fold

From US12319739 (F STAR DELTA, dated 2025)
